Results from publication PMC2120665.

Target: anti-SKL-reactive polypeptides
Test: co-IP

percent of Pay32p present in the complex: 84.6%
B1: Pay32p (natural protein)
chain: MSFMRGGSECSTGRNPLSQFTKHTAEDRSLQHDRVAGPSGGRVGGMRSNTGEMSQQDREMMARFGAAGPEQSSFNYEQMRHELHNMGAQGGQIPQVPSQQGAANGGQWARDFGGQQTAPGAAPQDAKNWNAEFQRGGSPAEAMQQQGPGPMQGGMGMGGMPMYGMARPMYSGMSANMAPQFQPQQANARVVELDEQNWEEQFKQMDSAVGKGKEVEEQTAETATATETVTETETTTEDKPMDIKNMDFENIWKNLQVNVLDNMDEWLEETNSPAWERDFHEYTHNRPEFADYQFEENNQFMEHPDPFKIGVELMETGGRLSEAALAFEAAVQKNTEHAEAWGRLGACQAQNEKEDPAIRALERCIKLEPGNLSALMNLSVSYTNEGYENAAYATLERWLATKYPEVVDQARNQEPRLGNEDKFQLHSRVTELFIRAAQLSPDGANIDADVQVGLGVLFYGNEEYDKAIDCFNAAIAVRPDDALLWNRLGATLANSHRSEEAIDAYYKALELRPSFVRARYNLGVSCINIGCYKEAAQYLLGALSMHKVEGVQDDVLANQSTNLYDTLKRVFLGMDRRDLVAKVGNGMDVNQFRNEFEF
